The target of the assay is plasma kallikrein (human) (UniProt P03952). The assay is described as follows: cell-based or functional assay.
Chain of plasma kallikrein (human) (P03952 20-638 limits assumed): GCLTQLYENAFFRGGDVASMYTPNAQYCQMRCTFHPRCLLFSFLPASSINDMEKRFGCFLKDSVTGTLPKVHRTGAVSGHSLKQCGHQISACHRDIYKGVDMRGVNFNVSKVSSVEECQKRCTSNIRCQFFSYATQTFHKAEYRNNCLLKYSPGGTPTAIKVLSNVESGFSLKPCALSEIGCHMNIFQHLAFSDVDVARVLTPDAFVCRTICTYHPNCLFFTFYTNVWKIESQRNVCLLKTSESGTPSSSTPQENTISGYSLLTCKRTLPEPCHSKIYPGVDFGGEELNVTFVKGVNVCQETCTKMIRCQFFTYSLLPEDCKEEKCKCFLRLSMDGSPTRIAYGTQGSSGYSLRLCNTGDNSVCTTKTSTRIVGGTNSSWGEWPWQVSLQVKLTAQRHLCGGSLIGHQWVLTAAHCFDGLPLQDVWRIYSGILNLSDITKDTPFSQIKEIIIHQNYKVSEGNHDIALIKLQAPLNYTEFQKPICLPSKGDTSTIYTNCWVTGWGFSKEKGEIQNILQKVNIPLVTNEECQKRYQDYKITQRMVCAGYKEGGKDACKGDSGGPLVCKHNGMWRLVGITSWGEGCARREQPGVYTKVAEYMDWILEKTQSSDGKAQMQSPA

B1: lanadelumab (antibody, V domains shown)
VH: EVQLLESGGGLVQPGGSLRLSCAASGFTFSHYIMMWVRQAPGKGLEWVSGIYSSGGITVYADSVKGRFTISRDNSKNTLYLQMNSLRAEDTAVYYCAYRRIGVPRRDEFDIWGQGTMVTVSS
VL: DIQMTQSPSTLSASVGDRVTITCRASQSISSWLAWYQQKPGKAPKLLIYKASTLESGVPSRFSGSGSGTEFTLTISSLQPDDFATYYCQQYNTYWTFGQGTKVEI
The molecule B1 yielded an IC50 for lanadelumab inhibition of 2-chain HMWK generation (FXIIa-activated citrated plasma, Western blot and sandwich ELISA) of 212 nM.

The values are drawn from patent publication US20210270842A1.
